Where no end group is shown, it is not given here.

Assay [1] deals with T1, EGFR-pY1068 phosphopeptide, LPVPE(p)….
T1 sequence (peptide, phosphotyrosine at (p)Y (residue 6 of the printed peptide; EGFR Tyr1068)): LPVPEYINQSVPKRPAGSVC
The assay is described as follows: ECL 7-spot plate screen, peptide-BSA spot, biotinylated TnT protein, Ru-streptavidin; signal normalized in two steps.

A further assay deals with BSA (control coating) (UniProt P02769). The assay is described as follows: ECL plate binding assay: BSA control on electrode, biotinylated TnT protein, Sulfo-TAG streptavidin.
Sequence of BSA (control coating) (P02769 25-607 limits assumed): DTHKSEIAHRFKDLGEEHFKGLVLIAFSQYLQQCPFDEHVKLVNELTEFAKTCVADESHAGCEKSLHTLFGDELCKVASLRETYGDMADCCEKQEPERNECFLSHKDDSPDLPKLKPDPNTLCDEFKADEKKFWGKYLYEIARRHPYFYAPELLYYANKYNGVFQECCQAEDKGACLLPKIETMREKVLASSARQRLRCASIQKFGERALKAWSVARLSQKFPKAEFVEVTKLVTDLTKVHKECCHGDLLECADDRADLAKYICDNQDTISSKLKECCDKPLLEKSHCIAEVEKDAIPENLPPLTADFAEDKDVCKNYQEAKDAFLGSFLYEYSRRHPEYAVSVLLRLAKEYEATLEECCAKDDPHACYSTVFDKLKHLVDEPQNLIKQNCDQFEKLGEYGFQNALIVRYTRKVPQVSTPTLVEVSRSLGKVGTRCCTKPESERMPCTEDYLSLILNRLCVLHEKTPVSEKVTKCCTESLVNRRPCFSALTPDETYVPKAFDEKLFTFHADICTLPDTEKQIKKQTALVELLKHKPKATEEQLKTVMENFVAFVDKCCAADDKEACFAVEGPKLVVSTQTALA
The target of assay [2] is Pool A of peptide:BSA conjugates (EGFR-pTyr1148, IkBa-24ppC, Myc-p58Tp62S). Kind of assay: ECL 4-spot binding assay with pooled peptide-BSA conjugates, biotinylated TnT protein, Sulfo-TAG streptavidin.
Assay [3] concerns the target Pool B of peptide:BSA conjugates (EGFR-pTyr992, EGFR-pTyr1148, Smad3C). The assay is described as above.
Assay [4] has as its target Pool C of peptide:BSA conjugates (EGFR-pTyr1068, IkBa-24ppC, Smad3C). The assay is described as above.
The target in assay [5] is Pool D of peptide:BSA conjugates (EGFR-pTyr992, EGFR-pTyr1068, Myc-p58Tp62S). The assay is described as above.
For assay [6], the target named is Grb2 (EST clone IMAGE 4398016), in vitro translated, biotin-labelled (UniProt P62993). Kind of assay: competition: immobilized Grb2, +EGFR, un-phosphorylated peptide in solution; bound EGFR detected by its kinase activity on pEY.
Sequence of Grb2 (EST clone IMAGE 4398016), in vitro translated, biotin-labelled (P62993 whole entry): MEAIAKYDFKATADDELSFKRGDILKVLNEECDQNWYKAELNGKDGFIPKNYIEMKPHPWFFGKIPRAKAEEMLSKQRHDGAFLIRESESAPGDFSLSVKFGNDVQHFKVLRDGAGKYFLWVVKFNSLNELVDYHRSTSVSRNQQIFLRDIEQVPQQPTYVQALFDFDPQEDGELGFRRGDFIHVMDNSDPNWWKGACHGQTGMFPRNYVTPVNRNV

B1: BMX non-receptor tyrosine kinase (EST clone IMAGE 3919253), in vitro translated, biotin-labelled (enzyme, UniProt P51813 1-675, looked up)
chain: MDTKSILEELLLKRSQQKKKMSPNNYKERLFVLTKTNLSYYEYDKMKRGSRKGSIEIKKIRCVEKVNLEEQTPVERQYPFQIVYKDGLLYVYASNEESRSQWLKALQKEIRGNPHLLVKYHSGFFVDGKFLCCQQSCKAAPGCTLWEAYANLHTAVNEEKHRVPTFPDRVLKIPRAVPVLKMDAPSSSTTLAQYDNESKKNYGSQPPSSSTSLAQYDSNSKKIYGSQPNFNMQYIPREDFPDWWQVRKLKSSSSSEDVASSNQKERNVNHTTSKISWEFPESSSSEEEENLDDYDWFAGNISRSQSEQLLRQKGKEGAFMVRNSSQVGMYTVSLFSKAVNDKKGTVKHYHVHTNAENKLYLAENYCFDSIPKLIHYHQHNSAGMITRLRHPVSTKANKVPDSVSLGNGIWELKREEITLLKELGSGQFGVVQLGKWKGQYDVAVKMIKEGSMSEDEFFQEAQTMMKLSHPKLVKFYGVCSKEYPIYIVTEYISNGCLLNYLRSHGKGLEPSQLLEMCYDVCEGMAFLESHQFIHRDLAARNCLVDRDLCVKVSDFGMTRYVLDDQYVSSVGTKFPVKWSAPEVFHYFKYSSKSDVWAFGILMWEVFSLGKQPYDLYDNSQVVLKVSQGHRLYRPHLASDTIYQIMYSCWHELPEKRPTFQQLLSSIEPLREKDKH
modifications: biotin on some lysine residues (incorporated at random from biotin-Lys-tRNA)
Turning to B1, the normalized ECL signal in assay [1] turned out to be 3.

B2: Phospholipase C gamma 1 (PLCγ) (EST clone IMAGE 4419252), in vitro translated, biotin-labelled (enzyme, UniProt P19174 1-1290, looked up)
chain: MAGAASPCANGCGPGAPSDAEVLHLCRSLEVGTVMTLFYSKKSQRPERKTFQVKLETRQITWSRGADKIEGAIDIREIKEIRPGKTSRDFDRYQEDPAFRPDQSHCFVILYGMEFRLKTLSLQATSEDEVNMWIKGLTWLMEDTLQAPTPLQIERWLRKQFYSVDRNREDRISAKDLKNMLSQVNYRVPNMRFLRERLTDLEQRSGDITYGQFAQLYRSLMYSAQKTMDLPFLEASTLRAGERPELCRVSLPEFQQFLLDYQGELWAVDRLQVQEFMLSFLRDPLREIEEPYFFLDEFVTFLFSKENSVWNSQLDAVCPDTMNNPLSHYWISSSHNTYLTGDQFSSESSLEAYARCLRMGCRCIELDCWDGPDGMPVIYHGHTLTTKIKFSDVLHTIKEHAFVASEYPVILSIEDHCSIAQQRNMAQYFKKVLGDTLLTKPVEISADGLPSPNQLKRKILIKHKKLAEGSAYEEVPTSMMYSENDISNSIKNGILYLEDPVNHEWYPHYFVLTSSKIYYSEETSSDQGNEDEEEPKEVSSSTELHSNEKWFHGKLGAGRDGRHIAERLLTEYCIETGAPDGSFLVRESETFVGDYTLSFWRNGKVQHCRIHSRQDAGTPKFFLTDNLVFDSLYDLITHYQQVPLRCNEFEMRLSEPVPQTNAHESKEWYHASLTRAQAEHMLMRVPRDGAFLVRKRNEPNSYAISFRAEGKIKHCRVQQEGQTVMLGNSEFDSLVDLISYYEKHPLYRKMKLRYPINEEALEKIGTAEPDYGALYEGRNPGFYVEANPMPTFKCAVKALFDYKAQREDELTFIKSAIIQNVEKQEGGWWRGDYGGKKQLWFPSNYVEEMVNPVALEPEREHLDENSPLGDLLRGVLDVPACQIAIRPEGKNNRLFVFSISMASVAHWSLDVAADSQEELQDWVKKIREVAQTADARLTEGKIMERRKKIALELSELVVYCRPVPFDEEKIGTERACYRDMSSFPETKAEKYVNKAKGKKFLQYNRLQLSRIYPKGQRLDSSNYDPLPMWICGSQLVALNFQTPDKPMQMNQALFMTGRHCGYVLQPSTMRDEAFDPFDKSSLRGLEPCAISIEVLGARHLPKNGRGIVCPFVEIEVAGAEYDSTKQKTEFVVDNGLNPVWPAKPFHFQISNPEFAFLRFVVYEEDMFSDQNFLAQATFPVKGLKTGYRAVPLKNNYSEDLELASLLIKIDIFPAKENGDLSPFSGTSLRERGSDASGQLFHGRAREGSFESRYQQPFEDFRISQEHLADHFDSRERRAPRRTRVNGDNRL
modifications: biotin on some lysine residues (incorporated at random from biotin-Lys-tRNA)
Molecule B2 yielded an Average ECL signal in the assay with BSA (control coating) of 342 ECL signal. Moreover, the ECL signal in assay [2] came out at 239 ECL signal; in assay [3], 2780 ECL signal; in assay [4], 1550 ECL signal; in assay [5], 3390 ECL signal.

For the molecule LPVPEYINQSVPKRPAGSVC (not fully specified) [un-phosphorylated EGFR 1063-1081 peptide (Peptide, SEQ ID No. 8)], the ECL signal of EGFR bound to Grb2 in presence of the peptide in assay [6] is 34100 ECL signal.

B3: Shc1 (EST clone IMAGE 3907115), in vitro translated, biotin-labelled (protein, UniProt P29353-2 1-473, looked up)
chain: MNKLSGGGGRRTRVEGGQLGGEEWTRHGSFVNKPTRGWLHPNDKVMGPGVSYLVRYMGCVEVLQSMRALDFNTRTQVTREAISLVCEAVPGAKGATRRRKPCSRPLSSILGRSNLKFAGMPITLTVSTSSLNLMAADCKQIIANHHMQSISFASGGDPDTAEYVAYVAKDPVNQRACHILECPEGLAQDVISTIGQAFELRFKQYLRNPPKLVTPHDRMAGFDGSAWDEEEEEPPDHQYYNDFPGKEPPLGGVVDMRLREGAAPGAARPTAPNAQTPSHLGATLPVGQPVGGDPEVRKQMPPPPPCPGRELFDDPSYVNVQNLDKARQAVGGAGPPNPAINGSAPRDLFDMKPFEDALRVPPPPQSVSMAEQLRGEPWFHGKLSRREAEALLQLNGDFLVRESTTTPGQYVLTGLQSGQPKHLLLVDPEGVVRTKDHRFESVSHLISYHMDNHLPIISAGSELCLQQPVERKL
modifications: biotin on some lysine residues (incorporated at random from biotin-Lys-tRNA)
Regarding B3, the Average ECL signal with BSA (control coating) came to 342 ECL signal. In addition, the ECL signal came to 260 ECL signal in assay [2], 318 ECL signal in assay [3], 24 ECL signal in assay [4] and 26 ECL signal in assay [5].

The values are drawn from US20030207290A1.
